Laboratory results as given in patent US20210301005A1 (Genentech, published 2021).

What was measured:
[1] = molecular target: T1, human TGFβ3, mature dimeric form (human, UniProt P10600 301-412); assay: SPR
T1 construct: Peprotech, expressed in E. coli; also called TGFb3
T1 sequence: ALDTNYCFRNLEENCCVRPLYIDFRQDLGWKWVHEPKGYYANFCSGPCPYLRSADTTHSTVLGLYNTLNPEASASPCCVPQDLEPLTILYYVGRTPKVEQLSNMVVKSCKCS

[2] = molecular target: T2, human TGFβ2, mature receptor-binding domain (human, UniProt P09858 303-414 (pig entry), The mature TGFβ2 is a disulfide-linked homodimer of this 112-residue chain. The 4A11 epitope spans both monomers (p-1207).); assay: SPR
T2 construct: Peprotech; also called TGFb2
T2 sequence: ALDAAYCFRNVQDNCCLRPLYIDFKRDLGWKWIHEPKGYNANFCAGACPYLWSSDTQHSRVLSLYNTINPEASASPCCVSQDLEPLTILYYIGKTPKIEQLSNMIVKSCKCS

[3] = molecular target: T1, human TGFβ3, mature dimeric form; assay: BIAcore T200
Procedure, shortened: (§1)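 Humanized antibodies captured on protein A CM5 chip (~100 RU), then 3-fold serial dilutions of TGFβ (0.02–5 nM) injected in HBS-EP pH 7.4 at 25° C., 50 μl/min. kon and koff from 1:1 Langmuir fit; KD = koff/kon.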

[4] = molecular target: T2, human TGFβ2, mature receptor-binding …; assay: BIAcore T200
Procedure, shortened: as §1

[5] = molecular target: T1, human TGFβ3, mature dimeric form; assay: cell-based or functional assay
[6] = molecular target: T2, human TGFβ2, mature receptor-binding …; assay: cell-based or functional assay
[7] = molecular target: T1, human TGFβ3, mature dimeric form; assay: cell-based or functional assay; remark: listed apart in the source
[8] = molecular target: T2, human TGFβ2, mature receptor-binding …; assay: cell-based or functional assay; remark: listed apart in the source

B1: 4A11 (antibody, V domains shown)
VH: QSLEESGGRLVTPGTPLTLTCTVSGFSLSSYTVNWVRQAPGKGLEWIGYISYGGSAYYASWANGRFTISKTSATVDLKITSPTTEDTATYFCARHMQVGGAPTGSMAAFDPWGPGTLVTVSS
VL: AAVLTQTPSPVSAAVGGTVSISCQSSQSVYNNNYLSWFQQKPGQPPKLLIYGASTLTSGVPSRFKGSGSGTQFTLTISDVQCDDAATYYCAGGYSGSSDKYAFGGGTEVVVKG
notes: anti-TGFβ2/3, recombinant rabbit monoclonal; some paragraphs print the H/L pair as 32/33; also called Rb1.4A11; Rbt 4A11
- Kd [1]: 5 pM
- Kd [2]: 8 pM
- Kd [3]: ≤ 1.2 pM
- Kd [4]: 1.6 pM
- HEKBlue TGFβ blocking IC50 [5]: 60 pM
- HEKBlue TGFβ blocking IC50 [6]: 90 pM
- cell-based IC50 [7]: < 250 pM
- cell-based IC50 [8]: < 250 pM
